Laboratory results reported in patent CN114075285A.

Experiments:
[1] = molecular target: CD38 antigen on the cell surface (Daudi cells; NCI-H929 cells) (human) (UniProt P28907); test: cell-based or functional assay
[2] = molecular target: CD38 (human), analyte in Biacore (human) (UniProt P28907); test: SPR (Biacore 8K), antibody captured on Protein A chip, CD38 as analyte, 25℃

| ADCC reporter (Jurkat-Lucia-NFAT-CD16 + NCI-H929), EC50(μg/mL) [1] [µg/mL] | ADCC reporter (Jurkat-Lucia-NFAT-CD16 + NCI-H929), Top MFI [1] | Kd [2] [nM] | Substance |
| --- | --- | --- | --- |
| 0.375 | 2120 |  | Isotype control (antibody) |
| 0.017 | 57200 | 88.6 | RB0021 PC(Daratumumab) (antibody) |
